*1 amine or outer side, *2 acyl side, *3 side chain or, on linkers, in order; H or OH if unused. Where no end group is shown, it is not given here. Side-chain parts run from the residue outwards. [ ]: non-standard residue; d: D form. The star is where a group is joined. αMePhe(2-F) = C[C@](N)(Cc1ccccc1F)C(=O)O; γGlu = O=C(O)[C@H](CCC(=O)[*:2])N[*:1]; C14 diacid = O=C(O)CCCCCCCCCCCCC(=O)*; αMeY = C[C@](N)(Cc1ccc(O)cc1)C(=O)O; αMeL = CC(C)C[C@](C)(N)C(=O)O; Nle = CCCC[C@H](N)C(=O)O; Orn = NCCC[C@H](N)C(=O)O; AEEA = NCCOCCOCC(=O)O; Aib = CC(C)(N)C(=O)O
T1: human glucose-dependent insulinotropic polypeptide (GIP) receptor (human, UniProt P48546 22-466)
T1 sequence (looked up): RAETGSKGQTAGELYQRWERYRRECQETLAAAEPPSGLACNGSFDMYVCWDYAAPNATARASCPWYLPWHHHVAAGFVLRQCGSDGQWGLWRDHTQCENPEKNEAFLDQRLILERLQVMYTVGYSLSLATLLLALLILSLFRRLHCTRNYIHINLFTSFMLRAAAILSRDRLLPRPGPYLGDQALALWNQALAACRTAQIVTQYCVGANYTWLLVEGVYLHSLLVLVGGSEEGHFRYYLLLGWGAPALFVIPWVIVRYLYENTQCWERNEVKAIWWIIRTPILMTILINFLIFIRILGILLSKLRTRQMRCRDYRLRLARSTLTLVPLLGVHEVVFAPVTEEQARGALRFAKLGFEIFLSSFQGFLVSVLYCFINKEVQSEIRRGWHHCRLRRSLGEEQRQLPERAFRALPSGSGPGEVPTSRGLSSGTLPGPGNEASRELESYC


Legend:
Assay in all cases: cell-based or functional assay
[1] = biological target: T1, human glucose-dependent insulinotropic …
[2] = biological target: human glucagon-like peptide-1 (GLP-1) receptor (human, UniProt P43220 24-463)
human glucagon receptor = human glucagon receptor (human, UniProt P47871 26-477)

Row | Binder | cAMP EC50 [1] | cAMP EC50 [2] | cAMP EC50 (human glucagon receptor) | cAMP Emax [1] | cAMP Emax [2]
1 | YXEGTXTSDXSIXLDXKAQXEFIXXLIKGGPSSGAPPPS (Aib2, αMeF(2F)6, OMeY10, αMeL13, Orn16, K17(Z), Aib20, D-Glu24, αMeY25, K28(Z), C-terminal NH2; Z = AEEA2-(γ-Glu)-(10-(4-carboxyphenoxy)decanoyl)) [Example 278] | 0.0173 nM | 0.29 nM | > 9950 nM |  | 
2 | YXEGTXTSDXSIXLDXKAQXKFIXXLIEGGPSSGAPPPS (Aib2, αMeF(2F)6, OMeY10, αMeL13, Orn16, K17(Z), Aib20, K21(Z), D-Glu24, αMeY25, C-terminal NH2; Z = AEEA2-(γ-Glu)-CO-(CH2)10-CH3) [Example 289] | 0.017 nM | 0.731 nM | > 9950 nM |  | 
3 | YXEGTXTSDXSIXLDXIAQXKFIXXLIKGGPSSGAPPPS (Aib2, αMeF(2F)6, OMeY10, αMeL13, Orn16, Aib20, K21(Z), D-Glu24, αMeY25, K28(Z), C-terminal NH2; Z = AEEA2-(γ-Glu)-CO-(CH2)12-CO2H) [Example 263] | 0.0214 nM | 0.294 nM | > 9950 nM | 88.6% | 
4 | YXEGTXTSDXSIXLDXIAQXKFIXXLIKGGPSSGAPPPS (Aib2, αMeF(2F)6, 4Pal10, αMeL13, Orn16, Aib20, K21(Z), D-Glu24, αMeY25, K28(Z), C-terminal NH2; Z = AEEA2-(γ-Glu)-(11-(4-carboxyphenoxy)undecanoyl)) [Example 287] | 0.0189 nM | 0.563 nM | > 9950 nM |  | 
5 | YXEGTXTSDXSIXLDXIAQXKFIXXLIKGGPSSGAPPPS (Aib2, αMeF(2F)6, OMeY10, αMeL13, Orn16, Aib20, K21(Z), D-Glu24, αMeY25, K28(Z), C-terminal NH2; Z = AEEA2-(γ-Glu)-(10-(4-carboxyphenoxy)decanoyl)) [Example 280] | 0.0229 nM | 0.346 nM | > 9950 nM |  | 
6 | YXEGTXTSDXSIXLDXIAQXEFIKXLIKGGPSSGAPPPS (Aib2, αMeF(2F)6, 4Pal10, αMeL13, Orn16, Aib20, K24(Z), αMeY25, K28(Z), C-terminal NH2; Z = AEEA2-(γ-Glu)-(10-(4-carboxyphenoxy)decanoyl)) [Example 274] | 0.0226 nM | 0.406 nM | > 9950 nM |  | 
7 | YXEGTXTSDXSIXLDXKAQXKFIXXLIEGGPSSGAPPPS (Aib2, αMeF(2F)6, OMeY10, αMeL13, Orn16, K17(Z), Aib20, K21(Z), D-Glu24, αMeY25, C-terminal NH2; Z = AEEA2-(γ-Glu)-(10-(4-carboxyphenoxy)decanoyl)) [Example 277] | 0.0176 nM | 0.225 nM | > 9950 nM |  | 
8 | YXEGTXTSDXSIXLDXKAQXEFIXXLIKGGPSSGAPPPS (Aib2, αMeF(2F)6, OMeY10, αMeL13, Orn16, K17(Z), Aib20, D-Glu24, αMeY25, K28(Z), C-terminal NH2; Z = AEEA2-CO-(CH2)12-CO2H) [Example 266] | 0.0136 nM | 0.282 nM | > 9950 nM |  | 90.5%
9 | Y[Aib]EGT[αMePhe(2-F)]TSD[Nle]SI[αMeL]LD[Orn]IAQ[Aib]EFIK([AEEA-AEEA-γGlu-C14 diacid])[αMeY]LIK([AEEA-AEEA-γGlu-C14 diacid])GGPSSGAPPPS-NH2 (N-terminus assumed; SMILES CCCC[C@H](NC(=O)[C@H](CC(=O)O)NC(=O)[C@H](CO)NC(=O)[C@@H](NC(=O)[C@](C)(Cc1ccccc1F)NC(=O)[C@@H](NC(=O)CNC(=O)[C@H](CCC(=O)O)NC(=O)C(C)(C)NC(=O)[C@@H](N)Cc1ccc(O)cc1)[C@@H](C)O)[C@@H](C)O)C(=O)N[C@@H](CO)C(=O)N[C@H](C(=O)N[C@@](C)(CC(C)C)C(=O)N[C@@H](CC(C)C)C(=O)N[C@@H](CC(=O)O)C(=O)N[C@@H](CCCN)C(=O)N[C@H](C(=O)N[C@@H](C)C(=O)N[C@@H](CCC(N)=O)C(=O)NC(C)(C)C(=O)N[C@@H](CCC(=O)O)C(=O)N[C@@H](Cc1ccccc1)C(=O)N[C@H](C(=O)N[C@@H](CCCCNC(=O)COCCOCCNC(=O)COCCOCCNC(=O)CC[C@H](NC(=O)CCCCCCCCCCCCC(=O)O)C(=O)O)C(=O)N[C@@](C)(Cc1ccc(O)cc1)C(=O)N[C@@H](CC(C)C)C(=O)N[C@H](C(=O)N[C@@H](CCCCNC(=O)COCCOCCNC(=O)COCCOCCNC(=O)CC[C@H](NC(=O)CCCCCCCCCCCCC(=O)O)C(=O)O)C(=O)NCC(=O)NCC(=O)N1CCC[C@H]1C(=O)N[C@@H](CO)C(=O)N[C@@H](CO)C(=O)NCC(=O)N[C@@H](C)C(=O)N1CCC[C@H]1C(=O)N1CCC[C@H]1C(=O)N1CCC[C@H]1C(=O)N[C@@H](CO)C(N)=O)[C@@H](C)CC)[C@@H](C)CC)[C@@H](C)CC)[C@@H](C)CC) [Example 269] | 0.0335 nM | 1.72 nM | > 9950 nM |  | 
10 | YXEGTXTSDXSIXLDXKAQXEFIXXLIEGGPSSGAPPPSK (Aib2, αMeF(2F)6, OMeY10, αMeL13, Orn16, K17(Z), Aib20, D-Glu24, αMeY25, K40(Z), C-terminal NH2; Z = AEEA2-(γ-Glu)-CO-(CH2)12-CO2H) [Example 261] | 0.025 nM | 0.531 nM | > 9950 nM |  | 
11 | YXEGTXTSDXSIXLDXIAQXKFIXXLIEGGPSSGAPPPSK (Aib2, αMeF(2F)6, 4Pal10, αMeL13, Orn16, Aib20, K21(Z), D-Glu24, αMeY25, K40(Z), C-terminal NH2; Z = AEEA2-(γ-Glu)-(11-(4-carboxyphenoxy)undecanoyl)) [Example 288] | 0.0219 nM | 0.354 nM | > 9950 nM |  | 
12 | YXEGTXTSDXSIXLDXKAQXEFIXXLIEGGPSSGAPPPSK (Aib2, αMeF(2F)6, 4Pal10, αMeL13, Orn16, K17(Z), Aib20, D-Glu24, αMeY25, K40(Z), C-terminal NH2; Z = AEEA2-(γ-Glu)-(10-(4-carboxyphenoxy)decanoyl)) [Example 273] | 0.0166 nM | 2.08 nM | > 9950 nM |  | 
13 | YXEGTXTSDXSIXLDXKAQXEFIXXLIEGGPSSGAPPPSK (Aib2, αMeF(2F)6, 4Pal10, αMeL13, Orn16, K17(Z), Aib20, D-Glu24, αMeY25, K40(Z), C-terminal NH2; Z = AEEA2-(γ-Glu)-(11-(4-carboxyphenoxy)undecanoyl)) [Example 285] | 0.0115 nM | 1.21 nM | > 9950 nM |  | 
14 | YXEGTXTSDXSIXLDXKAQXEFIXXLIEGGPSSGAPPPSK (Aib2, αMeF(2F)6, OMeY10, αMeL13, Orn16, K17(Z), Aib20, D-Glu24, αMeY25, K40(Z), C-terminal NH2; Z = AEEA2-CO-(CH2)12-CO2H) [Example 267] | 0.0162 nM | 0.271 nM | > 9950 nM |  | 
15 | YXEGTXTSDXSIXLDXIAQXKFIXXLIEGGPSSGAPPPSK (Aib2, αMeF(2F)6, OMeY10, αMeL13, Orn16, Aib20, K21(Z), D-Glu24, αMeY25, K40(Z), C-terminal NH2; Z = AEEA2-(γ-Glu)-CO-(CH2)12-CO2H) [Example 264] | 0.0208 nM | 0.413 nM | > 9950 nM | 114% | 
16 | YXEGTXTSDXSIXLDXIAQXKFIXXLIEGGPSSGAPPPSK (Aib2, αMeF(2F)6, 4Pal10, αMeL13, Orn16, Aib20, K21(Z), D-Glu24, αMeY25, K40(Z), C-terminal NH2; Z = AEEA2-(γ-Glu)-(10-(4-carboxyphenoxy)decanoyl)) [Example 276] | 0.0134 nM | 0.49 nM | > 9950 nM |  | 
17 | YXEGTXTSDXSIXLDXIAQXKFIXXLIEGGPSSGAPPPSK (Aib2, αMeF(2F)6, OMeY10, αMeL13, Orn16, Aib20, K21(Z), D-Glu24, αMeY25, K40(Z), C-terminal NH2; Z = AEEA2-CO-(CH2)12-CO2H) [Example 268] | 0.0265 nM | 0.613 nM | > 9950 nM |  | 
